In patent publication US12534534 (F STAR BETA, dated 2026):

T1: cyno CD137 on DO11.10-cCD137 cells (cynomolgus, UniProt Q07011 24-255 (human entry))
T1 chain: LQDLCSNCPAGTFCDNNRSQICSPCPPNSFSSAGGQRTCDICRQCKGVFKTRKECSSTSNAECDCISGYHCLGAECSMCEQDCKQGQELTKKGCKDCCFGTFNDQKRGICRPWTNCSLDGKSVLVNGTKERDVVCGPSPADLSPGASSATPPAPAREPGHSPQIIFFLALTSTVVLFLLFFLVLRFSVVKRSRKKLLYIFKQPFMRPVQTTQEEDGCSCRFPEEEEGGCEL

T2: cCD137-mFc-Avi (cynomolgus, Homodimer through the mouse Fc (one chain given). In the biotinylated version one biotin sits on the Avi-tag lysine of each monomer.)
T2 construct: dimer; biotinylated version used on streptavidin plates; also called cyno CD137-mFc-Avi; cyno CD137-mFc
T2 chain: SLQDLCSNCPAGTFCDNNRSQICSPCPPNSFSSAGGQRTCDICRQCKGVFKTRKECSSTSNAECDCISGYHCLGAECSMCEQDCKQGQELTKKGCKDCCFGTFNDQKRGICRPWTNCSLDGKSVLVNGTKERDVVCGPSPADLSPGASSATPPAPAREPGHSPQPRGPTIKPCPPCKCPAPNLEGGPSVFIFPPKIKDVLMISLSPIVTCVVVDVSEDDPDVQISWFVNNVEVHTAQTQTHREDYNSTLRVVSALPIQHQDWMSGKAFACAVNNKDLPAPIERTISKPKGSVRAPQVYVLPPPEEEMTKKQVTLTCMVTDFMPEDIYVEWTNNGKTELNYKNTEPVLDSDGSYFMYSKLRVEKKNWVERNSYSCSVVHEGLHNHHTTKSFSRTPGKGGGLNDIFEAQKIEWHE


Assays:
[1] = molecular target: human CD137 on DO11.10-hCD137 cells (human, UniProt Q07011 24-255); experiment: cell-based or functional assay
[2] = molecular target: T1, cyno CD137 on DO11.10-cCD137 cells; experiment: cell-based or functional assay
hCD137-mFc-Avi [3] = molecular target: T3, hCD137-mFc-Avi (human, UniProt Q07011 24-186); experiment: SPR (Biacore 3000), against the positive control G1/MOR7480.1
T3 construct: dimer; also called human CD137-mFc-Avi; human CD137-mFc
Experimental: (§1) Briefly, 25 µg/ml anti-human IgG (Fc) antibody (GE Healthcare, Human Antibody Capture Kit, BR100839) was coated on flow cells 1, 2, 3 and 4 of a Biacore sensor chip CM5 (GE Healthcare, BR100012) for 3 minutes at 5 µl/min, achieving a final response of approximately 4300 RU. The mAb² clones, diluted in HBS-EP buffer (GE Healthcare, BR100188) at 0.5 µg/ml, were injected individually on flows cell 2, 3 and 4 at 30 µl/min to achieve a response of approximately 80 RU. […] Regeneration was achieved by injecting 3 M magnesium chloride (GE Healthcare, Human Antibody Capture Kit, BR100839) for 30 seconds at a rate of 30 µl/min. […] These slightly less stringent conditions were used to assess whether this molecule could bind to cyno CD137-mFc. Subtracted data (flow cell 2-flow cell 1, flow cell 3-flow cell 1, or flow cell 4-flow cell 1) were analysed using BIAevaluation 3.2 Software (GE Healthcare) to identify binding using the model 1:1 binding with mass transfer, with refractive index (RI) constant 0.

hCD137-mFc-Avi [4] = molecular target: T3, hCD137-mFc-Avi; experiment: SPR (Biacore 3000), mAb^2 captured by anti-human Fc, dimeric CD137-mFc as analyte, 1:1 model with mass transfer
Experimental: as §1

cCD137-mFc-Avi = molecular target: T2, cCD137-mFc-Avi; experiment: as above
Experimental: as §1

hCD137-mFc-Avi [5] = molecular target: T3, hCD137-mFc-Avi; experiment: ELISA, hCD137-mFc-Avi coated, 100 nM antibody, competitor CD137L-His; normalised to G1/11D4 = 0 and G1/MOR7480.1 = 100; mean of n=2
Experimental: The following day, plates were washed with PBST (PBS+0.05% Tween20™) and blocked with PBS+1% BSA (Sigma, A3059-500G) for 1 hour at room temperature with agitation. After blocking, the plates were washed again with PBST. A 100 nM dilution of each test antibody was prepared in PBS+1% BSA and added to the CD137-coated plates and incubated for 1 hour at room temperature with agitation. […] The plates were then washed with PBST and then incubated with anti-his secondary antibody (R&D Systems, MAB050H) at a 1 in 1000 dilution in PBS for 1 hour at room temperature with agitation. The plates were then washed with PBST and incubated with TMB detection reagent (Thermo Fisher Scientific, 002023) until the positive control wells turned blue and then the reaction was stopped with the addition of 2N H_2SO_4. Plates were read at 450 nm using the plate reader with Gen5 Software, BioTek. Absorbance values of 630 nm were subtracted from those of 450 nm (Correction). The subtracted absorbance values were plotted vs the log concentration of antibody and the resulting curves were fitted using the log (inhibitor) vs response equation in GraphPad Prism.

Binder	DO11.10-hCD137 T cell activation assay EC50 (nM), crosslinked [1] [nM]	EC50 (nM), mIL-2 release, DO11.10-cCD137 T cell assay, crosslinked (mean of n = 2) [2] [nM]	Emax (mIL-2 pg/ml), DO11.10-cCD137 T cell assay, crosslinked [2] [pg/mL]	fold higher binding affinity than G1/MOR7480.1 (hCD137-mFc-Avi [3]) [fold]	Kd (hCD137-mFc-Avi [4]) [nM]	Kd (cCD137-mFc-Avi) [nM]	% CD137 ligand blocking activity (hCD137-mFc-Avi [5]) [%]
FS20-22-49AA/FS30-10-3 (bispecific antibody, human IgG1, kappa, L234A L235A, V domains shown, M97 (Kabat) to N against FS30-10; also called FS30-10-3 in mAb^2 format) VH: EVQLLESGGGLVQPGGSLRLSCAASGFTFSSYDMSWVRQAPGKGLEWVSDIDPTGSKTDYADSVKGRFTISRDNSKNTLYLQMNSLRAEDTAVYYCARDLNVYGFDYWGQGTLVTVSS VL: EIVLTQSPGTLSLSPGERATLSCRASQSVSSSYLAWYQQKPGQAPRLLIYGASSRATGIPDRFSGSGSGTDFTLTISRLEPEDFAVYYCQQSYSYPVTFGQGTKVEIKR	4.8	5	49400	~3	0.19	0.22	49.4
FS20-22-49AA/FS30-10-12 (bispecific antibody, human IgG1, kappa, L234A L235A, V domains shown, M97 (Kabat) to T against FS30-10; also called FS30-10-12 in mAb^2 format) VH: EVQLLESGGGLVQPGGSLRLSCAASGFTFSSYDMSWVRQAPGKGLEWVSDIDPTGSKTDYADSVKGRFTISRDNSKNTLYLQMNSLRAEDTAVYYCARDLTVYGFDYWGQGTLVTVSS VL: EIVLTQSPGTLSLSPGERATLSCRASQSVSSSYLAWYQQKPGQAPRLLIYGASSRATGIPDRFSGSGSGTDFTLTISRLEPEDFAVYYCQQSYSYPVTFGQGTKVEIKR	4.5	5.8	46900	–	6.31	4.63	53.8
FS20-22-49AA/FS30-10-16 (bispecific antibody, human IgG1, kappa, L234A L235A, V domains shown, M97 (Kabat) to L against FS30-10; also called FS30-10-16 in mAb^2 format) VH: EVQLLESGGGLVQPGGSLRLSCAASGFTFSSYDMSWVRQAPGKGLEWVSDIDPTGSKTDYADSVKGRFTISRDNSKNTLYLQMNSLRAEDTAVYYCARDLLVYGFDYWGQGTLVTVSS VL: EIVLTQSPGTLSLSPGERATLSCRASQSVSSSYLAWYQQKPGQAPRLLIYGASSRATGIPDRFSGSGSGTDFTLTISRLEPEDFAVYYCQQSYSYPVTFGQGTKVEIKR	3.7	3.7	50100	~3	0.17	0.15	48.1
FS20-22-49AA/FS30-5-37 (bispecific antibody, human IgG1, kappa, L234A L235A, V domains shown, M100D to I and M100H to L against FS30-5; also called FS30-5-37 in mAb^2 format) VH: EVQLLESGGGLVQPGGSLRLNCAASGFTFSSYAMSWVRQAPGKGLEWVSAISGSGGSTYYADSVKGRFTISRDNSKNTLYLQMNSLRAEDTAVYYCARSYDKYWGSSIYSGLDYWGQGTLVTVSS VL: EIVLTQSPGTLSLSPGERATLSCRASQSVSSSYLAWYQQKPGQAPRLLIYGASSRATGIPDRFSGSGSGTDFTLTISRLEPEDFAVYYCQQYYSYYPVTFGQGTKVEIKR	–	7.5	45700	–	3.45	3	107
FS20-22-49AA/FS30-35-14 (bispecific antibody, human IgG1, kappa, L234A L235A, V domains shown, M100F (Kabat) to A against FS30-35; also called FS30-35-14 in mAb^2 format) VH: EVQLLESGGGLVQPGGSLRLSCAASGFTFSAYNIHWVRQAPGKGLEWVSDISPYGGATNYADSVKGRFTISRDNSKNTLYLQMNSLRAEDTAVYYCARNLYELSAYSYGADYWGQGTLVTVSS VL: EIVLTQSPGTLSLSPGERATLSCRASQSVSSSYLAWYQQKPGQAPRLLIYGASSRATGIPDRFSGSGSGTDFTLTISRLEPEDFAVYYCQQYYYSSPITFGQGTKVEIKR	6.3	6.6	69700	–	0.6	0.67	6.6
